Measurements: patent publication US6294341, “Method for detecting a substance having an activity to inhibit HIV infection using immunoassay and variant protein used for said method” (Korea Institute of Science and Technology, dated 2001)

Target: Trx-N variant protein (homo sapiens and HIV hybrid)
Test: immunoassay on plate-adsorbed Trx-N, detection with anti-GST antibody

B1: glutathione S-transferase (GST), unmodified (other)
chain: MACGHVKLIYFNGRGRAEPIRMILVAAGVEFEDERIEFQDWPKIKPTIPGGRLPIVKITDKRGDVKTMSESLAIARFIARKHNMMGDTDDEYYIIEKMIGQVEDVESEYHKTLMKPPEEKEKISKEILNGKVPILLQAICETLKESTGNLTVGDKVTLADVVLIASIDHITDLDKEFLTGKYPEIHKHRKHLLATSPKLAKYLSERHATAFLVPRGSPGIHRD
B1: no binding.
